Experiment [1] has as its target Soc-SpyCatcher displayed on the T4 phage capsid (T4-SpyCatcher phage) (bacteriophage T4). The experiment is described as follows: co-sedimentation; sequential co-display on T4-SpyCatcher phage: S-ecto trimers added first at a 0.25:1 ratio, incubated, then HA-stem trimers added at a 1:1 ratio; 4 °C, PBS pH 7.4; SDS-PAGE quantification.
Experiment [2] shares this target. As to the kind of experiment: co-sedimentation; sequential co-display on T4-SpyCatcher phage: HA-stem trimers added first, incubated, then S-ecto trimers at 1:1; 4 °C, PBS pH 7.4; SDS-PAGE quantification.
Experiment [3] has the same target. As to the kind of experiment: co-sedimentation; T4-SpyCatcher phage incubated with SpyTagged S-ecto or HA-stem trimers alone at increasing ratios of trimer to Soc binding sites, 4 °C, 1-2 h, PBS pH 7.4; sedimented at 34 000 g, pellets washed twice, SDS-PAGE and band quantification; covalent SpyCatcher-SpyTag conjugation.

Take “Prefusion-stabilized SARS-CoV-2 spike ectodomain trimer with C-terminal SpyTag (from UniProt P0DTC2 14-1208) (domain or fragment)”: the copies per capsid (copies per capsid) was found to be 56 in experiment [1], 35 in experiment [2] and 118 in experiment [3].

The record behind these values is publication PMC12245071.
